Data reported in paper PMC4937829 (Nature structural & molecular biology, 2016).
Numbering of substitutions follows the chain as printed. In names and notes the source's numbering stands.

B1: Im7 L18A L19A L37A H40W (natural protein, E. coli, UniProt Q03708 1-87, looked up)
chain: MELKNSISDYTEAEFVQAAKEIEKENVAATDDVLDVALEWFVKITEHPDGTDLIYYPSDNRDDSPEGIVKEIKEWRAANGKPGFKQG
B2: wild-type (WT) E. coli Im7 (natural protein, UniProt Q03708 1-87, looked up)
chain: B1 chain with A18L, A19L, A37L, W40H
B3: Im7 L18A L19A L37A (natural protein, E. coli, UniProt Q03708 1-87, looked up)
chain: B1 chain with W40H
B4: Spy 29-124 (wild type) (domain or fragment, Escherichia coli)
chain: SFKDLNLTDAQKQQIREIMKGQRDQMKRPPLEERRAMHDIIASDTFDKVKAEAQIAKMEEQRKANMLAHMETQNKIYNILTPEQKKQFNANFEKRLT

Assays:
Spy 29-124 (wild type) [1] = biological target: B4; experiment: crystal structure
Spy 29-124 (wild type) [2] = biological target: B4; experiment: other fluorescence titration
Spy H96L 29-124 = biological target: T1, Spy H96L 29-124 (Escherichia coli, UniProt P77754 52-147, H96L); experiment: crystal structure
T1 sequence: B4 chain with H69L

crystal structure = biological target: the molecule itself; experiment: crystal structure

Binder | binding result (Spy 29-124 (wild type) [1]) | binding result (Spy H96L 29-124) | also measured
SISDYTEAEFVQLLKEIEKENVAATDDVLDVLLEHFVKIT [Im7 6-45 peptide] | binds |  | 
B1 |  |  | binding result (Spy 29-124 (wild type) [2]): binds
Ac-ELFRQFYQLDAYPSGAWYYVPLGTQYTDAP-NH2 [bovine alpha casein S1 148-177 peptide] | binds |  | 
B2 |  | binds | 
B3 |  | binds | 
B4 |  |  | binding result (crystal structure): binds
